Measurements from PMC12508434.

B1: P1-CN crRNA + P1 target dsDNA (mixed)
RNA: UAAUUUCUACUAAGUGUAGAUAACCUGAUCAAGAUACCCAA
DNA 1: CTTAGAGTTCTTTAAACCTGATCAAGATACCCAACCAAAC
DNA 2: TGTTGTTTGGTTGGGTATCTTGATCAGGTTTAAAGAACTCTAAG

Assays:
LbCas12a = LbCas12a (Lachnospiraceae bacterium? (only 'Lb' …, UniProt A0A5S8WF58 1-1228)); assay: SPR
[1] = target: dCas12a (DNase-dead; LbCas12a implied) (Lachnospiraceae bacterium? (only 'Lb' …, UniProt A0A5S8WF58 1-1228, D832A); assay: EMSA

Row | Binder | binding result (LbCas12a) | binding result [1]
1 | UAAUUUCUACUAAGUGUAGAUAACCUGAUCAAGAUACCCAA (structured_RNA) [P1-CN crRNA] | binds | –
2 | GAAUGUCUACUCAGCGUAGAUAACCUGAUCAAGAUACCCAA (structured_RNA) [P1-FL2 crRNA] | binds | –
3 | UAAUUUCUACUCAGCGUAGAUAACCUGAUCAAGAUACCCAA (structured_RNA) [P1-L2 crRNA] | binds | –
4 | CAAUGUCUACUCAGCGUAGAUAACCUGAUCAAGAUACCCAA (structured_RNA) [P1-FL1 crRNA] | binds | –
5 | GAAUGUCUACUAAGUGUAGAUAACCUGAUCAAGAUACCCAA (structured_RNA) [P1-F2 crRNA] | binds | –
6 | CAAUGUCUACUAAGUGUAGAUAACCUGAUCAAGAUACCCAA (structured_RNA) [P1-F1 crRNA] | binds | –
7 | UAAUUUCUACAAAACGUAGAUAACCUGAUCAAGAUACCCAA (structured_RNA) [P1-L1 crRNA] | binds | –
8 | B1 | – | binds
